Results as given in patent publication US20240011101A1, “METHOD OF DETERMINING RESISTANCE TO CHECKPOINT INHIBITOR THERAPIES” (Shattuck Labs, Inc., priority 2020, published 2024).

Experiments:
[1] = system: 4th generation anti-PD-1 resistant cells; test: RNA-seq gene expression (TPM) of 4th generation anti-PD-1 resistant CT26 cells cultured with or without IFNγ; assay type: cell-based, Mus musculus
Method: (§1) Three distinct vials of parental CT26 cells (ATCC; “experimental replicates”), two independently isolated tumors from “2nd round” mice, four independently isolated tumors from “4th round” mice (both “biological replicates”) were cultured with or without 20 ng/mL of mouse IFNγ (Biolegend) for 24 hours at […]. The following day, RNA was isolated from cells using Qiagen RNeasy reagents according to manufacturer's instructions, including QIASHREDDER homogenization and on-column DNaseI digestion. Isolated RNA was subjected to RNA-seq and data analysis. Briefly, sequencing libraries were generated and sequenced on an ILLUMINA HISEQ (2×150 paired end reads), targeting >20×10^6 reads per sample. Sequences were trimmed using TRIMMOMATIC v.0.36 and mapped to the Mus musculus GRCm38 reference genome using the STAR ALIGNER v.2.5.2b. Unique gene hit counts were calculated by using FEATURECOUNTS from the SUBREAD package v.1.5.2. Only unique reads that fell within exon regions were counted. Differential gene expression was determined using DESeq2, and the Wald test was used to generate p-values and log 2 fold changes; with log 2 fold change >1 and adjusted p-values <0.05 as cutoffs for significance.
Next the transcriptomic profile of the 2nd and 4th generation anti-PD-1 resistant cell lines was studied by comparison with each other and with an anti-PD-1 primarily resistant cell line. The B16.F10 murine melanoma tumor cell line was used as a model of anti-PD-1 “primary resistance,” as these tumors are not responsive to anti-PD-1 therapy. Three distinct vials of parental CT26 cells (ATCC; “experimental replicates”), two independently isolated tumors from “2nd round” mice, four independently isolated tumors from “4th round” mice (both “biological replicates”), and two distinct vials of parental B16.F10 cells (ATCC; “experimental replicates were cultured with or without 20 ng/mL of mouse IFNγ (Biolegend) for 24 hours at 37° C./5% CO2 to assess in vitro responsiveness. This mimics how tumor cells respond in vivo, as immune cell infiltrate and secrete effector cytokines like IFNγ. The following day, RNA was isolated from cells using Qiagen RNeasy reagents according to manufacturers instructions, including QIASHREDDER homogenization and on-column DNaseI digestion. Isolated RNA was subjected to RNA-seq and data analysis. Briefly, sequencing libraries were generated and sequenced on an ILLUMINA HISEQ (2×150 paired end reads), targeting >20×10^6 reads per sample. Sequences were trimmed using TRIMMOMATIC v.0.36 and mapped to the Mus musculus GRCm38 reference genome using the STAR ALIGNER v.2.5.2b. Unique gene hit counts were calculated by using FEATURECOUNTS from the SUBREAD package v.1.5.2. Only unique reads that fell within exon regions were counted. Differential gene expression was determined using DESeq2, and the Wald test was used to generate p-values and log 2 fold changes; with log 2 fold change >1 and adjusted p-values <0.05 as cutoffs for significance. The DEGs were identified between untreated and IFNγ treated parental CT26. As shown in FIG. 4A (Left Panel), Log 2 fold-change was plotted in the heatmap and genes are hierarchical clustered based on parental CT26. Of these, 338 genes had usable data from the other datasets; and those values are shown in the other columns (FIG. 4A (Left Panel)). Genes separated into 3 major clusters (FIG. 4A (Left Panel)). Associated genes were input into PANTHER to identify pathways associated with the dysregulated genes and the GO pathways associated with the DEGs were identified. As shown in FIG. 4A (Right Panel), the upregulation of expression of the genes associated with following GO pathways was enriched in 2nd generation cells and 4th generation cells compared to both parental CT26 cells and B16.F10 cells: L-phenyl alanine catabolic process, phospholipid efflux, tyrosine catabolic process, positive regulation of transcription from RNA polymerase II promoter in response to acidic pH, and drug export. […]

wild type CT26 cells = test: RNA-seq gene expression (TPM) of wild type CT26 cells cultured with or without IFNγ; assay type: cell-based; settings: 20 ng/mL mouse IFNγ, 24 hours, vs without IFNγ
Method: as §1
Next, the effect of IFNγ on the expression of certain genes that are differentially expressed in the 4th generation anti-PD-1 resistant cells compared to the wild type CT26 cells was studied. Briefly, the parental CT26 cells, second generation anti-PD-1 resistant cells and 4th generation anti-PD-1 resistant cells were cultured with or without 20 ng/mL of mouse IFNγ (Biolegend) for 24 hours at 37° C./[…]. The following day, RNA was isolated from cells using Qiagen RNeasy reagents according to manufacturer's instructions, including QIASHREDDER homogenization and on-column DNaseI digestion. Isolated RNA was subjected to RNA-seq and data analysis. Briefly, sequencing libraries were generated and sequenced on an ILLUMINA HISEQ (2×150 paired end reads), targeting >20×10^6 reads per sample. Sequences were trimmed using TRIMMOMATIC v.0.36 and mapped to the Mus musculus GRCm38 reference genome using the STAR ALIGNER v.2.5.2b. Unique gene hit counts were calculated by using FEATURECOUNTS from the SUBREAD package v.1.5.2. Only unique reads that fell within exon regions were counted. Differential gene expression was determined using DESeq2, and the Wald test was used to generate p-values and log 2 fold changes; with log 2 fold change >1 and adjusted p-values <0.05 as cutoffs for significance.

B1: IFNγ: mouse IFNγ (Biolegend), cytokine added to cell cultures at 20 ng/mL for 24 hours (protein, UniProt P01580 23-155, looked up)
Interferon gamma: HGTVIESLESLNNYFNSSGIDVEEKSLFLDIWRNWQKDGDMKILQSQIISFYLRLFEVLKDNQAISNNISVIESHLITTFFSNSKAKKDAFMSIAKFEVNNPQVQRQAFNELIRVVHQLLPESSLRKRKRSRC
For B1, which “expression of type I and type II interferon genes (baseline hyperactivated)” value ([1]; CT26 anti-PD-1 resistant cells challenged with IFNγ (20 ng/mL, 24 hours), FIG. 4B) is on record?
Its value is “downregulate”.

What about the “expression of Trim7” value ([1]; in response to IFNγ (20 ng/mL, 24 hours), FIG. 5C) of the same molecule?
Its value is “overexpressed”.

And the “expression of Lrg1” value ([1]; in response to IFNγ (20 ng/mL, 24 hours), FIG. 5D)?
The value was “overexpressed”.

And the “expression of CD274” value ([1]; in the presence of IFNγ (20 ng/mL, 24 hours), FIG. 5A)?
Its value is “repressed”.

And the “expression of B2m” value ([1]; in the presence of IFNγ (20 ng/mL, 24 hours), FIG. 5B)?
The value was “repressed”.

What about the “expression of Stat1” value ([1]; in the presence of IFNγ (20 ng/mL, 24 hours), FIG. 7A) of the same molecule?
Its value is “repressed”.

And the “expression of Stat2” value ([1]; in the presence of IFNγ (20 ng/mL, 24 hours), FIG. 7B)?
The value was “repressed”.

What about the “expression of Irf1” value ([1]; in the presence of IFNγ (20 ng/mL, 24 hours), FIG. 7C) of the same molecule?
Its value is “repressed”.

And the “expression of Tap1” value ([1]; in the presence of IFNγ (20 ng/mL, 24 hours), FIG. 7D)?
Its value is “repressed”.

What about the “expression of Ccl5 (RANTES)” value ([1]; in the presence of IFNγ (20 ng/mL, 24 hours), FIG. 9A) of the same molecule?
Its value is “repressed”.

What about the “expression of Cxcl10 (IP-10)” value ([1]; in the presence of IFNγ (20 ng/mL, 24 hours), FIG. 9B) of the same molecule?
The value was “repressed”.

What about the “expression of Ifnb1” value ([1]; in the presence of IFNγ (20 ng/mL, 24 hours), FIG. 9C) of the same molecule?
The value was “repressed”.

What about the “expression of Cd274 (PD-L1)” value (wild type CT26 cells; FIG. 5A) of the same molecule?
The value was “increased”.

And the “expression of B2M” value (wild type CT26 cells; FIG. 5B)?
The value was “increased”.

What about the “expression of Trim7” value (wild type CT26 cells; FIG. 5C) of the same molecule?
The value was “increased”.

And the “expression of Lrg1” value (wild type CT26 cells; FIG. 5D)?
The value was “increased”.

And the “expression of Stat1” value (wild type CT26 cells; FIG. 7A)?
The value was “increased”.

And the “expression of Stat2” value (wild type CT26 cells; FIG. 7B)?
Its value is “increased”.

What about the “expression of Irf1” value (wild type CT26 cells; FIG. 7C) of the same molecule?
The value was “increased”.

And the “expression of Tap1” value (wild type CT26 cells; FIG. 7D)?
The value was “increased”.

And the “expression of Ccl5 (RANTES)” value (wild type CT26 cells; FIG. 9A)?
Its value is “increased”.

And the “expression of Cxcl10 (IP-10)” value (wild type CT26 cells; FIG. 9B)?
The value was “increased”.

What about the “expression of Ifnb1” value (wild type CT26 cells; FIG. 9C) of the same molecule?
The value was “increased”.
